# B1: LSLt-ΔC-mIP5 2-K (Mus musculus) (protein)
# chain: MEEGKMDENEWSYHGEGNKSLVVAHAQRCVVLRFLKFPPNKKKTSEEILQHLQNIVDFGKNVMKDFLGENYVHCGEVVQLPLEFVKQLCLKIQCERPESRCDKDLDTFSGYAMCLPNLTRLQTFHFAEHRPILCVEIKPKCGFIPFSNDVTHEMKHKVCRYCMHQHLKVATGKWKKISKYCPLDLYSGNKQRMHFALRSLLQETQNNLRIFKNGELIYGCGDARSPVADLKELAHHLKPFFFPSNGLASGPHCTKAVIRELVHVITRVLLSSSEKARAGALRLGLQGPRVCEASPFSRSLHNQGKNTSEHSGLPKGCLLYKTLQVQMLDQLDIEGLYPLYKRVEQYLEEFPEERKTLQIDGPYDEVFYQKLLDLSTEDDGTVAFALTKVQQYRVAMTAKDCSIMIALSPCLQGTSSDQRPVIPSSRSRLAFSVSVLDLDLKPYESIPHQYKLDSKIVNYYSKTVHAKD
# notes: lacks the 21 C-terminal residues (stop codon at 469); LSLt (Laetiporus sulphureus lectin) tag kept; E. coli BL21 Star (DE3)
# B2: LSLt-ΔC-mIP5 2-K (Mus musculus; K173A) (protein)
# chain: MEEGKMDENEWSYHGEGNKSLVVAHAQRCVVLRFLKFPPNKKKTSEEILQHLQNIVDFGKNVMKDFLGENYVHCGEVVQLPLEFVKQLCLKIQCERPESRCDKDLDTFSGYAMCLPNLTRLQTFHFAEHRPILCVEIKPKCGFIPFSNDVTHEMKHKVCRYCMHQHLKVATGAWKKISKYCPLDLYSGNKQRMHFALRSLLQETQNNLRIFKNGELIYGCGDARSPVADLKELAHHLKPFFFPSNGLASGPHCTKAVIRELVHVITRVLLSSSEKARAGALRLGLQGPRVCEASPFSRSLHNQGKNTSEHSGLPKGCLLYKTLQVQMLDQLDIEGLYPLYKRVEQYLEEFPEERKTLQIDGPYDEVFYQKLLDLSTEDDGTVAFALTKVQQYRVAMTAKDCSIMIALSPCLQGTSSDQRPVIPSSRSRLAFSVSVLDLDLKPYESIPHQYKLDSKIVNYYSKTVHAKD
# notes: as for B1
# Assays:
# [1] = substrate: O=P(O)(O)O[C@@H]1[C@@H](OP(=O)(O)O)[C@H](OP(=O)(O)O)[C@H](O)[C@H](OP(=O)(O)O)[C@H]1OP(=O)(O)O; assay: HPLC of IP5-dependent ATP to ADP conversion; format: biochemical, Mus musculus; conditions: 50 μM ATP, 1 mM MgCl2, 20 mM Hepes, pH 7.3, 0.2–5 μM IP5
# [2] = substrate: O=P(O)(O)O[C@@H]1[C@@H](OP(=O)(O)O)[C@H](OP(=O)(O)O)[C@H](O)[C@H](OP(=O)(O)O)[C@H]1OP(=O)(O)O; assay: HPLC of IP5-dependent ATP to ADP conversion; format: biochemical, Mus musculus; conditions: 50 μM ATP, 1 mM MgCl2, 20 mM Hepes, pH 7.3, 0.2–5 μM IP5; remark: listed apart in the source
# Excerpt: HPLC of IP5-dependent ATP to ADP conversion on LSLt-ΔC-mIP5 2-K | showing very similar kinetic parameters (Fig. 3A)
protein,measurement,setting,value
B1,Km,[1],0.29 µM
B2,Km,[2],0.2729 ± 0.0895 µM

# From article PMC5481561, “The crystal structure of mammalian inositol 1,3,4,5,6-pentakisphosphate 2-kinase reveals a new zinc-binding site and key features for protein function” (The Journal of Biological Chemistry, 2017)
